Experimental findings from US20220040297A1 (Chugai, published 2022) are described below.

Residue numbers refer to the chain shown, from its start. Names may count otherwise.

T1: biotin-labeled human CD154 (human, UniProt P29965 113-261, limits assumed, biotin-labeled)
T1 construct: also called biotinylated human CD154
T1 sequence (looked up): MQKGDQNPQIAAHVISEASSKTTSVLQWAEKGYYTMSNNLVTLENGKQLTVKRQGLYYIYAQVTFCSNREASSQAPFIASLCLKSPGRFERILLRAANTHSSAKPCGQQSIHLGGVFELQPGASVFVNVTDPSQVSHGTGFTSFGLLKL

B1: CE115HA000 T57N one-arm antibody (antibody, human IgG1, kappa, L234A L235A, N297A, name in Kabat numbering)
heavy: QVQLVESGGGVVQPGRSLRLSCAASGFTFSNAWMHWVRQAPGKGLEWVAQIKAKSNNYANYYAESVKGRFTISRDDSKNSLYLQMNSLKTEDTAVYYCRYVHYGAYYGVDAWGQGTTVTVSSASTKGPSVFPLAPSSKSTSGGTAALGCLVKDYFPEPVTVSWNSGALTSGVHTFPAVLQSSGLYSLSSVVTVPSSSLGTQTYICNVNHKPSNTKVDKKVEPKSCDKTHTCPPCPAPEAAGGPSVFLFPPKPKDTLMISRTPEVTCVVVDVSHEDPEVKFNWYVDGVEVHNAKTKPREEQYASTYRVVSVLTVLHQDWLNGKEYKCKVSNKALPAPIEKTISKAKGQPREPQVYTLPPSRCELTKNQVSLSCAVKGFYPSDIAVEWESNGQPENNYKTTPPVLDSDGSFFLVSKLTVDKSRWQQGNVFSCSVMHEALHNHYTQKSLSLSPDYKDDDDK
chain: EPKSSDKTHTCPPCPAPELLGGPSVFLFPPKPKDTLMISRTPEVTCVVVDVSHEDPEVKFNWYVDGVEVHNAKTKPREEQYNSTYRVVSVLTVLHQDWLNGKEYKCKVSNKALPAPIEKTISKAKGQPREPQVCTLPPSRDELTKNQVSLWCLVKGFYPSDIAVEWESNGQPENNYKTTPPVLDSDGSFFLYSKLTVDKSRWQQGNVFSCSVMHEALHNRYTQKSLSLSP
light: DIVMTQSPLSLPVTPGEPASISCRSSQSLVHSNRNTYLHWYQQKPGQAPRLLIYKVSNRFSGVPDRFSGSGSGTDFTLKISRVEAEDVGVYYCGQGTQVPYTFGQGTKLEIKRTVAAPSVFIFPPSDEQLKSGTASVVCLLNNFYPREAKVQWKVDNALQSGNSQESVTEQDSKDSTYSLSSTLTLSKADYEKHKVYACEVTHQGLSSPVTKSFNRGEC
B2: CE115HA000 E61Q one-arm antibody (antibody, human IgG1, kappa, L234A L235A, N297A, name in Kabat numbering)
heavy: B1 heavy with N60T, E64Q
chain: B1 chain
light: B1 light
B3: CE115HA000 D101R one-arm antibody (antibody, human IgG1, kappa, L234A L235A, N297A, name in Kabat numbering)
heavy: B1 heavy with N60T, D110R
chain: B1 chain
light: B1 light
B4: CE115HA000 I51E one-arm antibody (antibody, human IgG1, kappa, L234A L235A, N297A, name in Kabat numbering)
heavy: B1 heavy with I51E, N60T
chain: B1 chain
light: B1 light
B5: CE115HA000 Y59A one-arm antibody (antibody, human IgG1, kappa, L234A L235A, N297A, name in Kabat numbering)
heavy: B1 heavy with N60T, Y62A
chain: B1 chain
light: B1 light
B6: CE115HA000 N76S one-arm antibody (antibody, human IgG1, kappa, L234A L235A, N297A, name in Kabat numbering)
heavy: B1 heavy with N60T, N79S
chain: B1 chain
light: B1 light
B7: CE115HA000 A102P one-arm antibody (antibody, human IgG1, kappa, L234A L235A, N297A, name in Kabat numbering)
heavy: B1 heavy with N60T, A111P
chain: B1 chain
light: B1 light
B8: CE115HA000 Y97D one-arm antibody (antibody, human IgG1, kappa, L234A L235A, N297A, name in Kabat numbering)
heavy: B1 heavy with N60T, Y103D
chain: B1 chain
light: B1 light
B9: CE115HA000 K52E one-arm antibody (antibody, human IgG1, kappa, L234A L235A, N297A, name in Kabat numbering)
heavy: B1 heavy with K52E, N60T
chain: B1 chain
light: B1 light
B10: CE115HA000 W33A one-arm antibody (antibody, human IgG1, kappa, L234A L235A, N297A, name in Kabat numbering)
heavy: B1 heavy with W33A, N60T
chain: B1 chain
light: B1 light
B11: CE115HA000 G98D one-arm antibody (antibody, human IgG1, kappa, L234A L235A, N297A, name in Kabat numbering)
heavy: B1 heavy with N60T, G104D
chain: B1 chain
light: B1 light
B12: CE115HA000 S52cA one-arm antibody (antibody, human IgG1, kappa, L234A L235A, N297A, name in Kabat numbering)
heavy: B1 heavy with S55A, N60T
chain: B1 chain
light: B1 light
B13: CE115HA000 W33F one-arm antibody (antibody, human IgG1, kappa, L234A L235A, N297A, name in Kabat numbering)
heavy: B1 heavy with W33F, N60T
chain: B1 chain
light: B1 light
B14: 154R4B07#1 (antibody, human IgG1, kappa, L234A L235A, N297A)
heavy: QVQLVESGGGLVQPGRSLRLSCAASGFTFSNAWMHWVRQAPGKGLEWVAQIKDRGNNYAAYYAESVKGRFTISRDDSKNSIYLQMNSLKTEDTAVYYCRYVHYGSYFFASFYFGVDIWGQGTTVTVSSASTKGPSVFPLAPSSKSTSGGTAALGCLVKDYFPEPVTVSWNSGALTSGVHTFPAVLQSSGLYSLSSVVTVPSSSLGTQTYICNVNHKPSNTKVDKKVEPKSCDKTHTCPPCPAPEAAGGPSVFLFPPKPKDTLMISRTPEVTCVVVDVSHEDPEVKFNWYVDGVEVHNAKTKPREEQYASTYRVVSVLTVLHQDWLNGKEYKCKVSNKALPAPIEKTISKAKGQPREPQVYTLPPSRCELTKNQVSLSCAVKGFYPSDIAVEWESNGQPENNYKTTPPVLDSDGSFFLVSKLTVDKSRWQQGNVFSCSVMHEALHNHYTQKSLSLSPDYKDDDDK
chain: B1 chain
light: B1 light
notes: One-arm antibody
B15: NNS6f59 (antibody)
heavy: QVQLVESGGGLVQPGRSLRLSCAASGFTFSNAWMHWVRQAPGKGLEWVAQIKDKSNNYATYYAESVKGRFTISRDDSKNSIYLQMNSLKTEDTAVYYCRYVHYAALLVQEGYYGVDAWGQGTTVTVSSASTKGPSVFPLAPSSKSTSGGTAALGCLVKDYFPEPVTVSWNSGALTSGVHTFPAVLQSSGLYSLSSVVTVPSSSLGTQTYICNVNHKPSNTKVDKKVEPKSCDKTHTCPPCPAPEAAGGPSVFLFPPKPKDTLMISRTPEVTCVVVDVSHEDPEVKFNWYVDGVEVHNAKTKPREEQYASTYRVVSVLTVLHQDWLNGKEYKCKVSNKALPAPIEKTISKAKGQPREPQVYTLPPSRCELTKNQVSLSCAVKGFYPSDIAVEWESNGQPENNYKTTPPVLDSDGSFFLVSKLTVDKSRWQQGNVFSCSVMHEALHNHYTQKSLSLSPDYKDDDDK
chain: B1 chain
light: B1 light
notes: one-arm antibody
B16: NNS6f72 (antibody)
heavy: B15 heavy with L106E, L107G, V108I, Q109W, E110W
chain: B1 chain
light: B1 light
notes: one-arm antibody
B17: NNS6f73 (antibody)
heavy: B15 heavy with L106W, L107V, Q109G, E110V, G111R
chain: B1 chain
light: B1 light
notes: one-arm antibody
B18: NNS6f64 (antibody)
heavy: B15 heavy with L107V, V108S, Q109L, E110T, G111V
chain: B1 chain
light: B1 light
notes: one-arm antibody
B19: NNS6f67 (antibody)
heavy: B15 heavy with L106G, V108L, Q109R, E110A, G111A
chain: B1 chain
light: B1 light
notes: one-arm antibody
B20: NNS6f62 (antibody)
heavy: B15 heavy with L106N, L107G, V108G, Q109T, E110R, G111H
chain: B1 chain
light: B1 light
notes: one-arm antibody
B21: NNS6f68 (antibody)
heavy: B15 heavy with L106V, L107E, V108W, Q109G, E110R, G111W
chain: B1 chain
light: B1 light
notes: one-arm antibody
B22: NNS6f71 (antibody)
heavy: B15 heavy with L106G, L107W, Q109L, E110G, G111S
chain: B1 chain
light: B1 light
notes: one-arm antibody
B23: NNS6f58 (antibody)
heavy: B15 heavy with L106S, L107W, V108Q, Q109V, E110S, G111R
chain: B1 chain
light: B1 light
notes: one-arm antibody

One assay has as its target CD3ε homodimer protein (human, UniProt P07766 23-126, limits assumed). The assay is described as follows: SPR Biacore T200, CD3e homodimer on CM4 chip, antibody as analyte, 25 C.
Target sequence in this assay (P07766 23-126 limits assumed): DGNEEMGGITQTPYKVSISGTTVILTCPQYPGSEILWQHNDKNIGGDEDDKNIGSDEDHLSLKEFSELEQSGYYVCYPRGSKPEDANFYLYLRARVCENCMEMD
Method: An appropriate amount of CD3ε homodimer protein was immobilized onto Sensor chip CM4 (GE Healthcare Japan Corp.) by the amine coupling method. Then, the antibody having an appropriate concentration was injected thereto as an analyte and allowed to interact with the CD3ε homodimer protein on the sensor chip. Then, the sensor chip was regenerated by the injection of 10 mmol/L glycine-HCl (pH 1.5). The assay was conducted at 25° C., and HBS-EP+ (GE Healthcare Japan Corp.) was used as a running buffer. […] Each parameter was calculated using Biacore T200 Evaluation Software (GE Healthcare Japan Corp.).
Specifically, when the amount of the antibody comprising CE115HA000 bound was defined as X and the amount of the H chain one-amino acid altered form bound was defined as Y, a value of Z (ratio of amounts bound)=Y/X was used.
B1: the “KD ratio (KD of CE115HA000/KD of altered form)” value (from here on “KD ratio”) turned out to be 9.9.
As for B2, the “KD ratio” value stood at 0.85.
As for B3, the “KD ratio” value came to 5.66.
In the case of B4, the “KD ratio” value came to 0.84.
As to B5, the “KD ratio” value amounted to 6.74.
With B6, the “KD ratio” value was determined as 0.34.
As for B7, the “KD ratio” value is 3.61.
Turning to B8, the “KD ratio” value turned out to be 64.7.
In the case of B9, the “KD ratio” value is 19.8.
Turning to B10, the “KD ratio” value was 23.
Take B11: the “KD ratio” value was determined as 2.35.
For B12, the “KD ratio” value turned out to be 0.67.
For B13, the “KD ratio” value was found to be 0.68.

In another assay the target is T1, biotin-labeled human CD154. The assay can be described thus: ECL competition: biotinylated CD154, CD3ε homodimer as competitor [1].
Method: Next, each obtained IgG was evaluated for its binding to CD3 and human CD154 at the same time by the competition method (electrochemiluminescence method (ECL method)).
A TBST solution containing 0.5% BSA (referred to as a blocking solution; the TBST solution was TBS (manufactured by Takara Bio Inc.) supplemented with 0.1% Tween 20) was added at 150 μL/well to streptavidin plate (MSD K.K.), and the plate was incubated at room temperature for 1 hour or longer. After removal of the blocking solution, each well was washed three times with 250 μL of a TBST solution. The antibody-antigen complex solution was added thereto at 50 L/well, and the plate was incubated at room temperature for 1 hour so that the biotinylated antigen-antibody-detection sulfo-tag antibody complex solution bound via the biotinylated antigen to the streptavidin plate. After removal of the antibody-antigen complex solution, each well was washed three times with a TBST solution, and a solution of 4× READ buffer (MSD K.K.) diluted 2-fold with water was added thereto at 150 μL/well, followed by the detection of the luminescence signal of the sulfo-tag using Sector Imager 2400 (MSD K.K.).
B14: the “Relative ECL reaction (to no antigen coating), CD3ε[+]” value stood at 1.

In a further assay the target is T2, CD3ε homodimer protein (human, UniProt P07766 23-126, limits assumed).
T2 construct: also called human CD3ε homodimer protein; CD3e homodimer
The assay is described as follows: SPR (Biacore T200, 25°C); CD3ε homodimer immobilized on CM4, one-arm antibody as analyte.
T2 sequence (P07766 23-126 limits assumed): as above
B15: binding was put at a Kd of 200 nM.
For B16, the dissociation constant (Kd) came to 150 nM.
B17 returned a Kd of 26 nM.
B18 gave a Kd of 78 nM.
With B19, binding was characterised by a dissociation constant (Kd) of 36 nM. Compared with the last molecule, the Kd is about 2.2-fold lower.
On the same count and under the same terms, the result for B20 reads 61 nM; that for B21, 45 nM; that for B22, 51 nM.
B23 had a Kd of 44 nM. This Kd and that of the molecule before are within 1.5-fold of each other.
